Legend:
[1] = molecular target: 人CD47抗原 CD47-FcLama (human CD47 antigen) (human, UniProt Q08722 19-139); assay: BLI (Octet Red384), CD47-FcLama covalently on AR2G sensor, antibody as analyte (68.9, 34.4, 17.2 nM), 1:1 global fit, mean of three measurements
[2] = molecular target: T1, 食蟹猴CD47抗原 cynoCD47(ARCO), Cynomolgus/Rhesus CD47 protein, Fc Tag, cat. CD7-C5252 (cynomolgus monkey / rhesus monkey); assay: BLI (Octet Red384), as in Example 3, cynoCD47-Fc on AR2G sensor, antibody as analyte, mean of three measurements
T1 construct: Commercial protein

[3] = molecular target: T2, 人PD-L1抗原 (human PD-L1 antigen) (human, UniProt Q9NZQ7 19-238, limits assumed); assay: BLI (Octet Red384), as in Example 3, human PD-L1 antigen on AR2G sensor, antibody as analyte, mean of three measurements
T2 construct: also called 专有PD-L1抗原
T2 sequence (Q9NZQ7 19-238 limits assumed): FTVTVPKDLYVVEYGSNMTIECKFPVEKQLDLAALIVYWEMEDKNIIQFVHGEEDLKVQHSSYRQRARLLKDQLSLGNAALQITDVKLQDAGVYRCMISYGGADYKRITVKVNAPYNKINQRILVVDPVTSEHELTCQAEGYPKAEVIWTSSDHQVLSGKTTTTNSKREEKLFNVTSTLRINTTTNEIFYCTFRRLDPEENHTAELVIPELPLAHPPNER

人CD47抗原 CD47-FcLama (human CD47 antigen), sequence (Q08722 19-139): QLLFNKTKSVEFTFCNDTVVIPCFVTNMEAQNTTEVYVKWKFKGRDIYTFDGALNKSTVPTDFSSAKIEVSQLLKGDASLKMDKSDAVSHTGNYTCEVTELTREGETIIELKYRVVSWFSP

Kd [1]: 82.5 nM
Kd [2]: 57 nM
Kd [3]: 2.54 nM
B1: 双特异性抗体09-001 (bispecific antibody 09-001, binds CD47 and PD-L1, common light chain) (bispecific antibody, human IgG1, lambda, L234A L235A)
heavy 1: not shown
light: QTVVTQEPSLSVSPGGTVTLTCGLSSGTVTAINYPGWYQQTPGQAPRTLIYNTNTRHSGVPDRFSGSISGNKAALTITGAQAEDEADYYCALYMGNGGHMFGGGTKLTVLGQPKAAPSVTLFPPSSEELQANKATLVCLISDFYPGAVTVAWKADSSPVKAGVETTTPSKQSNNKYAASSYLSLTPEQWKSHRSYSCQVTHEGSTVEKTVAPTECS
heavy 2: EVQLVESGGGVVRPGGSLRLSCAASGFTFDDYAMSWVRQAPGKGLEWVSDISWSGSNTNYADSVKGRFTISRDNAKNSLYLQMNSLRAEDTALYHCARAPLLLAMTFGVGSWGQGTLVTVSSASTKGPSVFPLAPSSKSTSGGTAALGCLVKDYFPEPVTVSWNSGALTSGVHTFPAVLQSSGLYSLSSVVTVPSSSLGTQTYICNVNHKPSNTKVDKKVEPKSCDGPGGTCPPCPAPEAAGGPSVFLFPPKPKDTLMISRTPEVTCVVVDVSHEDPEVKFNWYVDGVEVHNAKTKPREEQYNSTYRVVSVLTVLHQDWLNGKEYKCKVSNKALPAPIEKTISKAKGQPREPQVCTLPPSREEMTKNQVSLSCAVKGFYPSDIAVEWESNGQPENNYKTTPPVLDSDGSFFLVSKLTVDKSRWQQGNVFSCSVMHEALHNHYTQKSLSLSPGK

From CN117858904A (dated 2024)
